# Data taken from patent publication US20090088386A1 (KAGOSHIMA UNIVERSITY, published 2009).
# No end group written: not given here.
# T1: pepB6-L10 peptide phage clone (not fully specified (C-terminus))
# T1 construct: not shown: phage gene III protein of the Ph.D.-12 library phage (New England Biolabs)
# T1 peptide: TSPILDVLTPPR
# T2: pepB6-L1 peptide phage clone (not fully specified (C-terminus))
# T2 construct: not shown: phage gene III protein of the Ph.D.-12 library phage (New England Biolabs)
# T2 peptide: GMLDIFAPIRHV
# T3: pepD1-C2, C13 peptide phage clone
# T3 construct: also called pepD1-C13; not shown: phage gene III protein of the Ph.D.-C7C library phage (New England Biolabs)
# T3 peptide: CYGTEPWMC
# T4: pepD1-C8 peptide phage clone
# T4 construct: not shown: phage gene III protein of the Ph.D.-C7C library phage (New England Biolabs)
# T4 peptide: CFGRLPWMC
# T5: pepD1-C18 peptide phage clone
# T5 construct: not shown: phage gene III protein of the Ph.D.-C7C library phage (New England Biolabs)
# T5 peptide: CFGHEPWMC
# T6: pepD1-C10 peptide phage clone
# T6 construct: not shown: phage gene III protein of the Ph.D.-C7C library phage (New England Biolabs)
# T6 peptide: CFGSLPWMC
# T7: pepD1-L6 peptide phage clone
# T7 construct: not shown: phage gene III protein of the Ph.D.-12 library phage (New England Biolabs)
# T7 peptide: SSIIDILLPPIY
# T8: pepD1-L20 peptide phage clone
# T8 construct: not shown: phage gene III protein of the Ph.D.-12 library phage (New England Biolabs)
# T8 peptide: NPLDFYAPSILP
# T9: pepD1-L7 peptide phage clone
# T9 construct: not shown: phage gene III protein of the Ph.D.-12 library phage (New England Biolabs)
# T9 peptide: SILDILSPRLAE
# T10: pepD1-L13 peptide phage clone
# T10 construct: not shown: phage gene III protein of the Ph.D.-12 library phage (New England Biolabs)
# T10 peptide: GNTLLDTLVPLI
# T11: pepD1-C3 peptide phage clone
# T11 construct: not shown: phage gene III protein of the Ph.D.-C7C library phage (New England Biolabs)
# T11 peptide: CQGHLPWMC
# T12: pepB7-C15 (pepD1-C5, C7, C20) peptide phage clone
# T12 construct: also called pepD1-C7; pepD1-C20; not shown: phage gene III protein of the Ph.D.-C7C library phage (New England Biolabs)
# T12 peptide: CYGTKPWMC
# T13: pepD1-L5, L9 peptide phage clone
# T13 construct: also called pepD1-L9; not shown: phage gene III protein of the Ph.D.-12 library phage (New England Biolabs)
# T13 peptide: GSPFLDLLAPAA
# T14: pepD1-C11 peptide phage clone
# T14 construct: not shown: phage gene III protein of the Ph.D.-C7C library phage (New England Biolabs)
# T14 peptide: CFGHKPWMC
# Key:
# [1] = biological target: T1, pepB6-L10 peptide phage clone; test: phage ELISA, scFv coated on plate, phage detected with anti-M13 antibody
# Protocol: (§1) An ELISA plate was coated with scFv used as a template in the panning or with control scFv in an amount of 50 ng/40 μl/well (0.1 M NaHCO₃, pH 8.6) at 4° C. for 6 hours. Each well was blocked with 0.5% gelatin at 4° C. for 13 hours. Each well was washed with 0.2% PBST three times and then reacted at room temperature for 1 hour by the addition of the isolated peptide phage clone solution (approximately 1.6×10¹¹ virions/40 μl). After reaction with 40 μl of biotinylated anti-M13 monoclonal antibodies (diluted 1000 folds) and a streptavidin-alkaline phosphatase conjugate (diluted 1000 folds), bound phages were detected using substrate p-nitrophenyl phosphate.
# (§2) The experiment was conducted according to the procedures described in the paragraph (5) ELISA. […] The experiment was conducted according to the procedures described in the paragraph (5) ELISA. […] The experiment was conducted according to the procedures described in the paragraph (5) ELISA.
# [2] = biological target: T2, pepB6-L1 peptide phage clone; test: as above
# Protocol: as §1, §2
# [3] = biological target: T3, pepD1-C2, C13 peptide phage clone; test: as above
# Protocol: as §1, §2
# [4] = biological target: T4, pepD1-C8 peptide phage clone; test: as above
# Protocol: as §1, §2
# [5] = biological target: T5, pepD1-C18 peptide phage clone; test: as above
# Protocol: as §1, §2
# [6] = biological target: T6, pepD1-C10 peptide phage clone; test: as above
# Protocol: as §1, §2
# [7] = biological target: T7, pepD1-L6 peptide phage clone; test: as above
# Protocol: as §1, §2
# [8] = biological target: T8, pepD1-L20 peptide phage clone; test: as above
# Protocol: as §1, §2
# [9] = biological target: T9, pepD1-L7 peptide phage clone; test: as above
# Protocol: as §1, §2
# [10] = biological target: T10, pepD1-L13 peptide phage clone; test: as above
# Protocol: as §1, §2
# [11] = biological target: T11, pepD1-C3 peptide phage clone; test: as above
# Protocol: as §1, §2
# [12] = biological target: T12, pepB7-C15 (pepD1-C5, C7, C20) peptide …; test: as above
# Protocol: as §1, §2
# [13] = biological target: T13, pepD1-L5, L9 peptide phage clone; test: as above
# Protocol: as §1, §2
# [14] = biological target: T14, pepD1-C11 peptide phage clone; test: as above
# Protocol: as §1, §2
# [15] = biological target: T12, pepB7-C15 (pepD1-C5, C7, C20) peptide …; test: biopanning on coated B7 scFv; no ELISA figure is given for B7
# Protocol: Each well was blocked with 0.5% gelatin for 1st panning, 0.25% BSA for 2nd panning, and 0.5% gelatin for 3rd panning as a blocking solution at 4° C. for 14 hours. The 12-mer or C7C peptide phage library was diluted (1.5×10¹² pfu/100 μl) with a blocking solution and then left standing for 30 minutes. Then, absorption operation was performed using control scFv. Specifically, the well coated with control scFv was washed with 0.2% Tween 20/PBS (PBST) three times and reacted at room temperature for 1 hour by the addition of a phage solution. A phage solution that was not bound to control scFv was collected. The well coated with scFv used as a template was reacted at room temperature for 1 hour by the addition of the phage solution. Each well was washed with 0.2% PBST 10 times. After addition of 100 μl of 1 mg/ml BSA/0.1 M glycine hydrochloride, pH 2.2, the mixture was left at room temperature for 5 minutes to thereby collect bound phages. Immediately thereafter, the phages were neutralized by the addition of 15 μl of 1 M Tris-HCl, pH 9.1. E. coli ER2738 was infected with the collected phages for amplification. The amplified phages were used in the 2nd and 3rd rounds of panning (1.5×10¹² pfu/100 μl).
# [16] = biological target: T15, amyloid β peptide 1-42 (UniProt P05067 672-713); test: precipitation of Aβ oligomer and fibers with streptavidin-magnet beads, Western blot with anti-Aβ antibodies
# T15 construct: domain: Aβ1-42; In the precipitation experiment it stood as oligomer and fibers formed 1.5 hours after dissolution at 40 µM; also called Aβ1-42; Aβ oligomer
# T15 sequence (P05067 672-713 limits assumed): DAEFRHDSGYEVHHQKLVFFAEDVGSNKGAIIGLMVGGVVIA
# Protocol: Aβ1-42 was dissolved at a concentration of 40 μM in 20 mM phosphate buffer, pH 7.0. […] After reaction, an aliquot thereof was sampled as a sample before immunoprecipitation (“Before precipitation”), and the remaining sample was reacted with M-280 streptavidin-magnet beads (Dynal Biotech, Oslo, Norway) adjusted to 20 μg/μl on ice for 1 hour at a ratio of 1:1 by liquid volume (final concentration: Aβ [10 μM]/synthesized peptide [10 μM]/beads [10 μg/μl]). After reaction, the beads were precipitated using a magnet to obtain “Supernatant”. To the precipitated beads, PBS was added in a liquid volume equal to the collected supernatant to obtain “Pellet”. Each obtained sample was electrophoresed and subjected to Western blot analysis using anti-Aβ antibodies.
# Aβ1-42 was dissolved at a concentration of 40 μM in 20 mM phosphate buffer, pH 7.0.
binder,measurement,setting,value
"B6 scFv (clone B6 described in WO 2005/105998) (scFv, V domains shown, Human single-chain antibody) VH: QVQLVQSGGGVVQPGGSLRLSCAASGFTFSRYAMSWVRQAPGKGLEWVSAMSGSGDTTYYADSVKGRFTISRDNSKKTVYLQMNRLRVEDTAIYYCAKDGRFRNRRSDGFDTWGQGTLVTVSS VL: SSELTQDPAVSVALGQTVRITCQGDSLRSYYASWYQQKPGQAPVLVIYGKDNRPSGIPDRFSGSSSGNAASLTITGAQAEDEADYYCNSRDTSGNHLVFGGGTKVTVLG",binding result,[1],binds
same,binding result,[2],binds
"D1 scFv (clone D1 described in WO 2005/105998) (scFv, V domains shown, Human single-chain antibody) VH: QVTLKESGGDLVKPGGSLRLSCAASGFTFRKYYMAWIRQAPGKGPEWLSTISNSGDIIDYADSVRGRFSISRDNAQKSLYLQMTSLRPDDSAIYYCAREYFFSFDVWGRGTLVTVSS VL: SSELTQDPAVSVALGQTIRITCQGDSLRSYYASWYQQKPGQAPVLVIYGKNKRPSGIPDRISGSRSGNTASLTITGAQAEDEADYYCNSRDSSGNHLVFGGGTQLTVLG",binding result,[3],binds
same,binding result,[4],binds
same,binding result,[5],binds
same,binding result,[6],binds
same,binding result,[7],binds
same,binding result,[8],binds
same,binding result,[9],binds
same,binding result,[10],binds
same,binding result,[11],binds
same,binding result,[12],binds
same,binding result,[13],binds
same,binding result,[14],binds
"B7 scFv (clone B7 described in WO 2005/105998) (scFv, V domains shown, Human single-chain antibody) VH: QVQLVQSGGGLVQPGGSQRLSCAASGFGFSNYAVSWVRQAPGTGLEWVAGVNGGGQNTFYADSVKGRFTISRDNSKKTVYLQMNSLRVEDTAIYYCAKDGRFRNRRPDGFDTWGQGTLVTVSS VL: SSELTQDPNVSVALGQTVRITCQGDTLRNNFPTWYQQKPGQAPVLVFYGKDNRPSGIPDRFSGSRSGTTASLVITGAQAQDEADYYCNSRDSGGHHLVFGGGTKLTVLG",binding result,[15],binds
GSGGGSCGYWRSEWGLCG (also called unrelated peptide) [unrelated control peptide (GSGGGSCGYWRSEWGLCG)],binding result,[16],no binding
